Assay results from the supplement of paper PMC7877785.
± gives the uncertainty stated by the source.

Assay: self-splicing fitness, log relative to wild type (ln ratio); higher = more splicing; Tetrahymena group I intron in knt gene, E. coli kanamycin selection, DiMSum; sequences stand for … in CUCUCU…GGAGGGAAAAGUUAUCAGGCAUGCACCUGGUAGCUAGUCUUUAAACCAAUAGAUUGCAUCGGUUUAAAAGGCAAGACCGUCAAAUUGCGGGAAAGGGGUCAACAGCCGUUCAGUACCAAGUCUCAGGGGAAACUUUGAGAUGGCCUUGCAAAGGGUAUGGUAAUAAGCUGACGGACAUGGUCCUAACCACGCAGCCAAGUCCUAAGUCAACAGAUCUUCUGUUGAUAUGGAUGCAGUUCACAGACUAAAUGUCGGUCGGGGAAGAUGUAUUCUUCUCAUAAGAUAUAGUCGGACCUCUCCUUAAUGGGAGCUAGCGGAUGAAGUGAUGCAACACUGGAGCCGCUGGGAACUAAUUUGUAUGCGAAAGUAUAUUGAUUAGUUUUGGAGUACUCGUGGUCG
How it was run: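 Pooled colonies went to amplicon sequencing on an Illumina HiSeq 2500 after six replicate transformations. The plates were LB agar with 100 μg/mL carbenicillin, 50 μM IPTG and 0.2% rhamnose, with or without 25 μg/mL kanamycin, incubated overnight at 37°C or 30°C. The E. coli BL21(DE3) library had all eight P1ex-region intron nucleotides randomised, the intron placed in the knt kanamycin-resistance gene on pET-22b(+). DiMSum fitness is the error-weighted combination of replicate fold changes, kanamycin against none, normalised to wild type.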

Sequence | self-splicing fitness (ln) (37 °C) | self-splicing fitness (ln) (30 °C)
CAGAAGCAAUAUUACGGGAC | -1.25 ± 0.35 | –
UAAUAGCAAUAUUACGUUGA | -2.54 ± 0.18 | -2.67 ± 0.2
CCUCAGCAAUAUUACGCAGA | -2.27 ± 0.33 | -3.39 ± 0.34
GGUGAGCAAUAUUACGGGGC | -1.01 ± 0.32 | –
AGAUAGCAAUAUUACGCUUU | -1.2 ± 0.16 | -0.847 ± 0.11
GGUCAGCAAUAUUACGCUCA | -0.0519 ± 0.17 | -1.15 ± 0.12
ACGAAGCAAUAUUACGGGUU | -2.58 ± 0.14 | -3.63 ± 0.15
CAACAGCAAUAUUACGCAUC | -2.29 ± 0.14 | -3.3 ± 0.16
CCACAGCAAUAUUACGAACG | -0.267 ± 0.075 | -0.247 ± 0.07
GAUCAGCAAUAUUACGAUCC | -2.18 ± 0.39 | -3.69 ± 0.37
GAAUAGCAAUAUUACGUUCG | -0.541 ± 0.17 | -1.16 ± 0.13
UAGUAGCAAUAUUACGGCUC | 0.206 ± 0.14 | -1.01 ± 0.098
AAGAAGCAAUAUUACGGGUA | -0.422 ± 0.12 | -2.35 ± 0.16
ACUAAGCAAUAUUACGUGAA | -0.939 ± 0.1 | -1.24 ± 0.074
CGCUAGCAAUAUUACGAUAU | -2.63 ± 0.25 | -3.98 ± 0.36
GCGAAGCAAUAUUACGUUGA | -2.33 ± 0.14 | -2.59 ± 0.15
CAACAGCAAUAUUACGUACU | -0.917 ± 0.097 | -1.89 ± 0.076
GCGGAGCAAUAUUACGCGCA | -0.701 ± 0.17 | -2.93 ± 0.3
UCGAAGCAAUAUUACGGUGG | -1.55 ± 0.14 | -1.82 ± 0.094
CGUGAGCAAUAUUACGGUAG | -1.11 ± 0.11 | -1.84 ± 0.11
GGUGAGCAAUAUUACGCAAG | 0.418 ± 0.23 | –
UCCUAGCAAUAUUACGAUGC | -2.7 ± 0.29 | -2.85 ± 0.21
CAGUAGCAAUAUUACGUGGU | -2.54 ± 0.17 | -2.56 ± 0.13
GGUUAGCAAUAUUACGGGGA | -2.49 ± 0.29 | -2.05 ± 0.25
UCCAAGCAAUAUUACGACGG | 0.164 ± 0.1 | -0.354 ± 0.076

Sequence | self-splicing fitness (ln) (37 °C) | self-splicing fitness (ln) (30 °C)
CACCAGCAAUAUUACGGAUU | -1.36 ± 0.085 | -2.05 ± 0.055
AGCCAGCAAUAUUACGCACU | -0.259 ± 0.12 | -0.425 ± 0.094
AGUAAGCAAUAUUACGCUCC | -1.18 ± 0.2 | -3.21 ± 0.28
UAUAAGCAAUAUUACGGGCC | – | -2.99 ± 0.31
GCGAAGCAAUAUUACGUUUC | – | -2.9 ± 0.2
GUGGAGCAAUAUUACGGUCG | -1.5 ± 0.45 | -4.21 ± 0.43
GAUCAGCAAUAUUACGGUGU | 0.335 ± 0.093 | -0.951 ± 0.072
GCAAAGCAAUAUUACGAUGA | 0.353 ± 0.096 | -0.578 ± 0.076
GUAAAGCAAUAUUACGGAUA | -0.67 ± 0.12 | -2.72 ± 0.16
ACGUAGCAAUAUUACGAUCA | -0.359 ± 0.086 | -0.757 ± 0.1
CGAGAGCAAUAUUACGUACC | -1.7 ± 0.41 | -3.27 ± 0.38
UGCAAGCAAUAUUACGCGCG | -0.733 ± 0.17 | -1.84 ± 0.13
GGUCAGCAAUAUUACGCAGG | -3.55 ± 0.3 | –
CUAAAGCAAUAUUACGAGUG | 0.456 ± 0.077 | 0.178 ± 0.047
UCCGAGCAAUAUUACGGUGG | -2.31 ± 0.2 | -2.76 ± 0.14
AUAGAGCAAUAUUACGUUAA | -1.76 ± 0.23 | -2.32 ± 0.19
UUGAAGCAAUAUUACGUUUG | -0.811 ± 0.19 | -1.6 ± 0.12
AUAUAGCAAUAUUACGGUCC | -1.44 ± 0.33 | -2.8 ± 0.25
ACCCAGCAAUAUUACGUUUU | -0.336 ± 0.066 | -1.41 ± 0.048
CUCAAGCAAUAUUACGAACC | -2.38 ± 0.28 | -2.43 ± 0.39
UCCUAGCAAUAUUACGUUUG | -3.36 ± 0.26 | -3.11 ± 0.17
UGAUAGCAAUAUUACGUAUG | -0.567 ± 0.16 | -1.1 ± 0.16
ACCCAGCAAUAUUACGACGU | 0.39 ± 0.071 | -0.291 ± 0.055
ACUAAGCAAUAUUACGCGGG | -1.36 ± 0.15 | -2.3 ± 0.18
